Measured values from US20070196350A1, “Compositions and Methods for Effecting Controlled Posterior Vitreous Detachment” (priority 2006, published 2007).
Several values for one entry are separate records, joined by “and”; a condition that tells them apart may be missing. Equal entries are not always repeated.

Test system: eyes from Dutch Belted Rabbits (vitreoretinal interface)
Experiment: Ex vivo SEM scoring of residual vitreous (posterior vitreous detachment) after intravitreal injection in rabbit eyes
Set-up: key to Score of vitreo-retinal specimen, IN (Infra-Nasal Area) / Score of vitreo-retinal specimen, INL (Infra-Nasal Inferior Area) / Score of vitreo-retinal specimen, IC (Infra-Central Area) / Score of vitreo-retinal specimen, ICL (Infra-Central Lower Area) / Score of vitreo-retinal specimen, IT (Infra-Temporal Area) / Score of vitreo-retinal specimen, ITL (Infra-Temporal Lower Area): Grade 0 - extensive amount of residual vitreous; Grade 1 - moderate amount of residual vitreous; Grade 2 - mild amount of residual vitreous; Grade 3 - Inner retina visible through sparse collagen fibrils; Grade 4 - None to trace collagen fibrils covering inner retina
Procedure: The purpose of this ex vivo study was to compare the efficacy of 200 μg human-derived plasmin (Bausch & Lomb Incorporated's compound name “BOL-303209-X”) alone and in combination with triamcinolone acetonide (“TA,” a glucocorticoid anti-inflammatory medicament) on PVD in Dutch Belted Rabbits using scanning electron microscopy. This study was designed to use intravitreal injection of TA to enhance clinical observations for clear identification of PVD, to minimize possible inflammatory responses, and to assess whether improved efficacy could be achieved by the combined use of BOL-303209-X and TA.
Twelve (12) normal eyes from six (6) Dutch Belted Rabbits (both male and female) were used. All right eyes from 6 rabbits were injected with BOL-303209-X plus vehicle (Group 1, n=6 eyes) and all left eyes were injected with BOL-303209-X plus TA (Group 2, n=3, 2 mg TA/eye; Group 3, n=3, 4 mg TA/eye). BOL-303209-X was freshly prepared and kept on ice before use.
On the day of operation, rabbits were anesthetized, eyes disinfected and pupils dilated 15-20 minutes prior to injection. Each rabbit received two intravitreal injections. In Groups 1, 2, and 3, an initial 50-μl injection of BOL-303209-X at a dose of 200 μg per eye in a formulation of 5 mM epsilon-aminocaproic acid (“EACA”)/0.05% Tween 80/0.9% saline was given intravitreally in both the right and left eyes. In Group 1 (Control) a second 50-μl injection of formulation vehicle (0.05% Tween 80/0.05% hydroxypropyl methylcellulose (HPMC)/0.9% saline) was delivered in the right eyes 5 minutes after the first injection. In Groups 2 and 3, a formulation containing TA at a dose of either 2 mg (Group 2) or 4 mg (Group 3) was injected into the left eyes in the same way.
Eyes were examined with a slit-lamp biomicroscope assisted with a Volk Lens at 4 days prior to injection for baseline documentation. To evaluate the efficacy of BOL-303209-X, all eyes were directly observed under a surgical microscope for 5 minutes after injection for possible changes in the vitreo-retina. The injected eyes were followed up at 7 and 14 days after injection. Attention was paid particularly to the vitreoretinal interface for signs of PVD and to the retina for signs of toxicity during slit-lamp examination.
Fourteen days after injection the in-life phase of the study was terminated, the rabbits were euthanized by over dose of pentobarbital, their eyes enucleated and fixed in Karnovsky's solution for at least 24 hours. The fixed eyes were processed further for SEM. The posterior pole of each eye was examined. Micrographs at magnifications ranging from 100-2,500× of each specimen or up to 10,000× in some cases were examined to assess the extent of posterior vitreous detachment. The amount of residual vitreous was scored on a scale of 0-4 with a score of 4 representing complete removal of vitreous from the inner retina according to a standard protocol.
After enucleation, the eyes were trimmed of external muscle, fat, and connective tissue, and cut using a razor blade about 3 mm behind the limbus to facilitate penetration of fixative. The eyes were placed in ice-cold fixative consisting of 2% formaldehyde (from paraformaldehyde), 2.5% glutaraldehyde, in 0.1 phosphate buffer, with 0.1 M sucrose and 0.5 mM CaCl2 added, pH 7.2. Each eye was immersed in approximately 40 ml fixative. After one hour, the fixative was exchanged with fresh fixative and the eyes were transported to B&L and stored refrigerated in fixative.
Tissue specimen that included sclera, choroid, retina with the optic nerve (approximately 1 cm in diameter) were surgically removed from each eye. These were dehydrated though a graded ethanol series (30%, 50%, 70%, 85%, 95%, 100%) for thirty minutes per dilution. Dehydrated samples were dried to the critical point (Samdri-PVT-3B, Tousimis, Rockville, Md.) and mounted on aluminum SEM pucks with colloidal graphite (Ted Pella, Inc, Redding, Calif.). […]

[1] = Group 1: 200 μg BOL-303209-X per eye + vehicle, SEM day 14, scale 0-4, one value per eye

B1: BOL-303209-X: human-derived plasmin (Bausch & Lomb Incorporated's compound name “BOL-303209-X”) (protein, UniProt P00747 20-580; P00747 581-810, looked up)
Plasmin heavy chain A: EPLDDYVNTQGASLFSVTKKQLGAGSIEECAAKCEEDEEFTCRAFQYHSKEQQCVIMAENRKSSIIIRMRDVVLFEKKVYLSECKTGNGKNYRGTMSKTKNGITCQKWSSTSPHRPRFSPATHPSEGLEENYCRNPDNDPQGPWCYTTDPEKRYDYCDILECEEECMHCSGENYDGKISKTMSGLECQAWDSQSPHAHGYIPSKFPNKNLKKNYCRNPDRELRPWCFTTDPNKRWELCDIPRCTTPPPSSGPTYQCLKGTGENYRGNVAVTVSGHTCQHWSAQTPHTHNRTPENFPCKNLDENYCRNPDGKRAPWCHTTNSQVRWEYCKIPSCDSSPVSTEQLAPTAPPELTPVVQDCYHGDGQSYRGTSSTTTTGKKCQSWSSMTPHRHQKTPENYPNAGLTMNYCRNPDADKGPWCFTTDPSVRWEYCNLKKCSGTEASVVAPPPVVLLPDVETPSEEDCMFGNGKGYRGKRATTVTGTPCQDWAAQEPHRHSIFTPETNPRAGLEKNYCRNPDGDVGGPWCYTTNPRKLYDYCDVPQCAAPSFDCGKPQVEPKKCPGR
Plasmin light chain B: VVGGCVAHPHSWPWQVSLRTRFGMHFCGGTLISPEWVLTAAHCLEKSPRPSSYKVILGAHQEVNLEPHVQEIEVSRLFLEPTRKDIALLKLSSPAVITDKVIPACLPSPNYVVADRTECFITGWGETQGTFGAGLLKEAQLPVIENKVCNRYEFLNGRVQSTELCAGHLAGGTDSCQGDSGGPLVCFEKDKYILQGVTSWGLGCARPNKPGVYVRVSRFVTWIEGVMRNN
modifications: plasmin plasma-derived
Group 1 (n=6 eyes): 200 μg BOL-303209-X per eye + vehicle
  n ≧ 3, number of eyes of the group with mean score of 3 or higher: 2
Group 1 (n=6 eyes): 200 μg BOL-303209-X per eye + vehicle, SEM day 14, scale 0-4
  Mean score of the group: 2.6
[1]
  Mean score of 6 inferior fields, per eye: 3.2 and 2.8 and 2.5 and 1.7 and 3.0
  Score of vitreo-retinal specimen, IC (Infra-Central Area): 4 and 3
  Score of vitreo-retinal specimen, ICL (Infra-Central Lower Area): 3 and 2 and 1
  Score of vitreo-retinal specimen, INL (Infra-Nasal Inferior Area): 3 and 1
  Score of vitreo-retinal specimen, IT (Infra-Temporal Area): 3 and 2
  Score of vitreo-retinal specimen, ITL (Infra-Temporal Lower Area): 3 and 2 and 1
Group 1: 200 μg BOL-303209-X per eye + vehicle, per-eye count
  n ≧ 3 (eye with mean score of 3 or higher), per eye: 1
Group 1: 200 μg BOL-303209-X per eye intravitreal + second injection of vehicle, SEM 14 days after injection, scale 0-4, one value per eye
  Score of vitreo-retinal specimen, IN (Infra-Nasal Area): 3 and 2
